Laboratory results reported in patent US20250179524A1.

Target: OX40 (receptor of OX40L) on tumor-infiltrating T cells of C57BL/6J mice (mouse) (UniProt P47741)
Assay: cell-based or functional assay

Sequence of UniProt P47741 (P47741 20-272): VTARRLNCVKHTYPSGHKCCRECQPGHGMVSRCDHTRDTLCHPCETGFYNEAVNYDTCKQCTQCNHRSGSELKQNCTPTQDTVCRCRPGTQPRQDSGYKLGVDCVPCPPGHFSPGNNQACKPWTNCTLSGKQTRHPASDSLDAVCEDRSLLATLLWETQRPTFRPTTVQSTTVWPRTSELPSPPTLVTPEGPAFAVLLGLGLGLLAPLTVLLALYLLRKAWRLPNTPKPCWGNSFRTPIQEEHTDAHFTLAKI

## murine OX40L (muOX40L) polypeptide (ligand)
  percentages of OX40+FoxP3+CD4+ cells in injected tumors of WT mice (FACS): 19%
